Measurements as given in patent publication US20240117018A1.

What was measured:
Test in all cases: cell-based or functional assay
[1] = target: HIV-1 Env pseudovirus 6240_08_TA5_4622 (HIV-1)
[2] = target: HIV-1 Env pseudovirus 6244_13_B5_4576 (HIV-1)
[3] = target: HIV-1 Env pseudovirus Ce1172_H1 (HIV-1)
[4] = target: HIV-1 Env pseudovirus Ce2060_G9 (HIV-1)
[5] = target: HIV-1 Env pseudovirus HIV-0013095-2.11 (HIV-1)
[6] = target: HIV-1 Env pseudovirus PVO.4 (HIV-1)
[7] = target: HIV-1 Env pseudovirus Q23.17 (HIV-1)
[8] = target: HIV-1 Env pseudovirus REJO4541.67 (HIV-1)
[9] = target: HIV-1 Env pseudovirus ZM135M.PL10a (HIV-1)
[10] = target: HIV-1 Env pseudovirus ZM214M.PL15 (HIV-1)

Row | Substance | IC50 [1] | IC80 [1] | MPI [1] | IC50 [2] | IC80 [2] | MPI [2] | IC50 [3] | IC80 [3] | MPI [3] | IC50 [4] | IC80 [4] | MPI [4] | IC50 [5] | IC80 [5] | MPI [5] | IC50 [6] | IC80 [6] | MPI [6] | IC50 [7] | IC80 [7] | also measured
1 | N49P7.2 (antibody) | 0.812 µg/mL | 2.87 µg/mL | 100 | 0.331 µg/mL | 1.04 µg/mL | 100 | > 50 µg/mL | > 50 µg/mL | 6 | 0.821 µg/mL | 2.81 µg/mL | 100 | 0.183 µg/mL | 0.931 µg/mL | 97 | 0.237 µg/mL | 0.831 µg/mL | 100 | 0.051 µg/mL | 0.2 µg/mL | MPI [7]: 100; IC50 [8]: 0.018 µg/mL; IC80 [8]: 0.08 µg/mL; MPI [8]: 100; IC50 [9]: 0.596 µg/mL; IC80 [9]: 2.8 µg/mL; MPI [9]: 99; IC50 [10]: 0.559 µg/mL; IC80 [10]: 4.53 µg/mL; MPI [10]: 100
2 | N49P11 (antibody) | 0.72 µg/mL | 3 µg/mL | 100 | 1.12 µg/mL | 5.45 µg/mL | 100 | 3.55 µg/mL | 19.2 µg/mL | 100 | 3.33 µg/mL | 13.2 µg/mL | 100 | 5.85 µg/mL | 17.8 µg/mL | 100 | 0.248 µg/mL | 1.17 µg/mL | 100 | 0.034 µg/mL | 0.254 µg/mL | MPI [7]: 100; IC50 [8]: 10.8 µg/mL; IC80 [8]: 27.1 µg/mL; MPI [8]: 100; IC50 [9]: 3.97 µg/mL; IC80 [9]: 16.6 µg/mL; MPI [9]: 100; IC50 [10]: 1.35 µg/mL; IC80 [10]: 8.98 µg/mL; MPI [10]: 100
3 | N49P18.1 (antibody) | 35.2 µg/mL | > 50 µg/mL | 60 | 33.4 µg/mL | > 50 µg/mL | 61 | 46.4 µg/mL | > 50 µg/mL | 52 | > 50 µg/mL | > 50 µg/mL | 37 | > 50 µg/mL | > 50 µg/mL | 48 | 9.65 µg/mL | 40.2 µg/mL | 84 | 1.16 µg/mL | 6.93 µg/mL | MPI [7]: 100; IC50 [8]: 4.08 µg/mL; IC80 [8]: 30.1 µg/mL; MPI [8]: 89; IC50 [9]: > 50 µg/mL; IC80 [9]: > 50 µg/mL; MPI [9]: 46; IC50 [10]: > 50 µg/mL; IC80 [10]: > 50 µg/mL; MPI [10]: 20
